# How the values were obtained:
# Assay in all cases: ITC; ITC at 30 C in TBS with 1 mM TCEP (pH not stated); 8 uM (6-10) protein in cell, 40 uM (15-50) nucleic acid in syringe; one-site model
# [1] = target: T1, Pr55Gag (HIV-1, UniProt P12493 1-500); conditions: protein: recombinant; tags: C-terminal His
# [2] = target: p7NC (HIV-1, UniProt P12493 378-432); conditions: protein: recombinant, tags: C-terminal His
# [3] = target: T1, Pr55Gag; conditions: protein: recombinant, tags: C-terminal His
# [4] = target: p15NC-SP2-p6 (HIV-1, UniProt P12493 378-500); conditions: protein: recombinant, tags: C-terminal His
# [5] = target: Pr50GagΔp6 (HIV-1, UniProt P12493 1-448); conditions: protein: recombinant, tags: C-terminal His
# [6] = target: Pr55Gag-TEV (HIV-1, UniProt P12493 1-500); conditions: protein: recombinant; tags: His removed by TEV protease; TEV site remnant at C-term
# [7] = target: Pr50GagΔp6-TEV (HIV-1, UniProt P12493 1-448); conditions: protein: recombinant; tags: His removed by TEV protease; TEV site remnant at C-term
binder,measurement,setting,value
GAGAAGAGAAGAGAAGAGAA (ssRNA) [4x 5'-GAGAA-3' (A-containing)],binding signal,[1],~3 fold stronger Kd than GU-containing RNA (average over sets)
GGACUAGCGGAGGCUAGUCC (structured_RNA) [Psi SL3 RNA (20mer)],Kd,[2]; hairpin,48 ± 23 nM
same,Kd,[3]; hairpin,81 ± 25 nM
same,Kd,[4]; hairpin,57 ± 11 nM
same,Kd,[5]; hairpin,98 ± 3 nM
CUUAGAAAUAGGGCAGCAUAGAACAAAAAUAGAGGAA (ssRNA) [HIVNL4.3RNA2671-2707],binding result,[6],binds
same,binding result,[7],binds
GAUGGGAUGGGAUGGGAUGG (ssRNA) [4x 5'-GAUGG-3' (GU-containing)],binding result,[6],binds
same,binding result,[2],binds
same,binding result,[3],binds
same,binding result,[7],binds
same,binding result,[4],binds
same,binding result,[5],binds
